Reference: paper PMC12000397, “Mechanism of client loading from BiP to Grp94 and its disruption by select inhibitors” (Nature Communications, 2025)
Several values for one entry are separate records, joined by “and”; a condition that tells them apart may be missing. Equal values may be shown once. Ends that are not written are not given here.

B2: Mouse BiP (residues 27-655) (natural protein)
chain: not shown
notes: BiP, mouse, residues 27-655; also called full-length BiP; source: E. coli BL21, purified (Ni-NTA, anion exchange, SEC); not shown: His6, N-terminal, cleaved

Assays:
[1] = biological target: T1, BiP/Grp94 (mouse, UniProt P20029 27-655; P08113 72-765, Δ287-328); assay: fluorescence polarisation; FITC-labeled client preincubated with BiP, Grp94 then added; BiP and Grp94 varied together (Fig. 6A, B; apparent) or 5 μM BiP and 5 μM Grp94 monomer (ΔP, Fig. 6C), with and without inhibitors; ADP conditions; 60 mM HEPES pH 7.0, 50 mM KCl, 5 mM MgCl2, 1 mM DTT, 0.75 mg/mL BSA, 1 mM ADP, 30 °C; conditions: both partners purified
T1 construct: BiP, mouse, residues 27-655; Grp94, mouse, residues 72-765 with the charged linker removed (Δ287-328); also called BiP and Grp94; source: E. coli BL21, each purified (Ni-NTA, anion exchange, SEC), mixed; not shown: His6, N-terminal, cleaved; copies: + 2
T1 sequence (P20029 27-655, stated change not applied, one chain of several): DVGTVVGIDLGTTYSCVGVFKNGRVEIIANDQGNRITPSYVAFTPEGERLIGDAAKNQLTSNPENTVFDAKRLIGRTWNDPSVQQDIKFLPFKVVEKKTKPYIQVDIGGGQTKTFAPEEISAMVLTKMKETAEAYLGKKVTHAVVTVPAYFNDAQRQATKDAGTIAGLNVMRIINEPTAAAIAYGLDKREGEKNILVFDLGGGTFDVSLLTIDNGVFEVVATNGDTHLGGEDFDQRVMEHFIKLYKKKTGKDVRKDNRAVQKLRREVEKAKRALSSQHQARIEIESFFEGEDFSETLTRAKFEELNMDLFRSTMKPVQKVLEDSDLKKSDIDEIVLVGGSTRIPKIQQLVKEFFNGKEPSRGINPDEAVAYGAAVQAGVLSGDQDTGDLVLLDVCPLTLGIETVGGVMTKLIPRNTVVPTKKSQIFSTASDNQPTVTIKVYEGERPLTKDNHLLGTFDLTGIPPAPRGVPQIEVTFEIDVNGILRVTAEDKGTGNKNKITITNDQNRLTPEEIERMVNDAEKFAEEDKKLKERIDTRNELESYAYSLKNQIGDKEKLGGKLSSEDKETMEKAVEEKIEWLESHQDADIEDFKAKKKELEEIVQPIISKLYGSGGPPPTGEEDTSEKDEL

[2] = biological target: B2; assay: fluorescence polarisation; 50 nM FITC-labeled client construct, BiP alone or Grp94 alone titrated; ADP conditions; 60 mM HEPES pH 7.0, 50 mM KCl, 5 mM MgCl2, 5% or 0% DMSO, 1 mM DTT, 0.75 mg/mL BSA, 1 mM ADP, 30 °C; single-site fit; conditions: both partners purified
[3] = biological target: T2, Grp94 (residues 72-765) with the charged-linker removed (Δ287-328) (mouse, UniProt P08113 72-765, Δ287-328); assay: fluorescence polarisation; FITC-labeled client preincubated with BiP, Grp94 then added; BiP and Grp94 varied together (Fig. 6A, B; apparent) or 5 μM BiP and 5 μM Grp94 monomer (ΔP, Fig. 6C), with and without inhibitors; ADP conditions; 60 mM HEPES pH 7.0, 50 mM KCl, 5 mM MgCl2, 1 mM DTT, 0.75 mg/mL BSA, 1 mM ADP, 30 °C; conditions: both partners purified
T2 construct: Grp94, mouse, residues 72-765 with the charged linker removed (Δ287-328); also called wild-type Grp94; source: E. coli BL21, purified (Ni-NTA, anion exchange, SEC); not shown: His6, N-terminal, cleaved

[4] = biological target: the molecule itself; assay: cross-linking; 1 μM M86C Grp94 dimer, 50 mM KCl, 50 mM Tris pH 8, 4% DMSO, with or without 5 μM BiP NBD and 50 μM inhibitor; disulfide formed with 10 mM oxidized glutathione, 25 °C, 2 h; SDS-PAGE
[5] = biological target: T3, FITC-labeled BiP NBD (mouse, FITC on Cys27 (D27C)); assay: fluorescence polarisation; 50 nM FITC-labeled BiP NBD constructs, Grp94 or Grp94 MD titrated; 25 mM Tris pH 7.5, 50 mM KCl, 1 mM ADP (hexokinase-treated), 1 mM DTT; single-site binding fit; conditions: both partners purified
T3 construct: also called FITC-NBD; D27C BiP; source: E. coli BL21, purified

[6] = biological target: T4, FITC-labeled BiP_(D187A) NBD (mouse, FITC on Cys27 (D27C)); assay: as above; conditions: both partners purified
T4 construct: interface II mutant; also called FITC-D187A NBD; source: E. coli BL21, purified

B1: FITC-labeled proIGF2_(25-120) (domain or fragment)
chain: AYGPGETLSGGELVDTLQFVSSDRGFYFSRPSSRANRRSRGIVEECSFRSSDLALLETYSATPAKSERDVSTSQAVLPDDFPRYPVGKFFQYDTWR
modifications: FITC (maleimide) on Cys70
B1 was tested, and the Kd [1] was 1100 ± 200 nM and the Kd [2] was 1500 nM and 2500 nM.

B2: binds [3].

B3: M86C Grp94 (natural protein, mouse, UniProt P08113 72-765, looked up)
chain: KSEKFAFQAEVNRMCKLIINSLYKNKEIFLRELISNASDALDKIRLISLTDENALAGNEELTVKIKCDKEKNLLHVTDTGVGMTREELVKNLGTIAKSGTSEFLNKMTEAQEDGQSTSELIGQFGVGFYSAFLVADKVIVTSKHNNDTQHIWESDSNEFSVIADPRGNTLGRGTTITLVLKEEASDYLELDTIKNLVRKYSQFINFPIYVWSSKTTVWDWELMNDIKPIWQRPSKEVEEDEYKAFYKSFSKESDDPMAYIHFTAEGEVTFKSILFVPTSAPRGLFDEYGSKKSDYIKLYVRRVFITDDFHDMMPKYLNFVKGVVDSDDLPLNVSRETLQQHKLLKVIRKKLVRKTLDMIKKIADEKYNDTFWKEFGTNIKLGVIEDHSNRTRLAKLLRFQSSHHSTDITSLDQYVERMKEKQDKIYFMAGSSRKEAESSPFVERLLKKGYEVIYLTEPVDEYCIQALPEFDGKRFQNVAKEGVKFDESEKTKESREATEKEFEPLLNWMKDKALKDKIEKAVVSQRLTESPCALVASQYGWSGNMERIMKAQAYQTGKDISTNYYASQKKTFEINPRHPLIRDMLRRIKEDEDDKTVMDLAVVLFETATLRSGYLLPDTKAYGDRIERMLRLSLNIDPEAQVEEEPEEEPED
notes: Grp94, mouse, residues 72-765 with the charged linker removed (Δ287-328), M86C for a designed disulfide bond; also called Grp94_(M86C); source: E. coli BL21, purified (Ni-NTA, anion exchange, SEC); not shown: His6, N-terminal, cleaved
B3: binds [4].

B4: proIGF2_(92-120) fragment (Ext. Site 1), FITC-labeled (domain or fragment, UniProt P01344 92-120, looked up)
chain: RDVC(FITC maleimide)TPPTVLPDNFPRYPVGKFFQYDTWK
notes: proIGF2 residues 92-120, cysteine mutation at Ser95; also called extended site 1; source: purified from inclusion bodies (8 M urea; ion exchange and/or Ni-NTA, denaturing)
With B4 the Kd [2] was 1900 ± 500 nM.

B5: Grp94 MD (domain or fragment)
chain: NDIKPIWQRPSKEVEEDEYKAFYKSFSKESDDPMAYIHFTAEGEVTFKSILFVPTSAPRGLFDEYGSKKSDYIKLYVRRVFITDDFHDMMPKYLNFVKGVVDSDDLPLNVSRETLQQHKLLKVIRKKLVRKTLDMIKKIADEKYNDTFWKEFGTNIKLGVIEDHSNRTRLAKLLRFQSSHHSTDITSLDQYVERMKEKQDKIYFMAGSSRKEAESSPFVERLLKKGYEVIYLTEPVDEYCIQALPEFDGKRFQNVAKE
B5 was tested, and the Kd [5] was 5800 ± 1200 nM and the Kd [6] was 6500 ± 700 nM.
